Legend:
Test in all cases: purified protein
Format in all cases: biochemical, Thalictrum flavum
CC(C)=CCC[C@@H](C)CC=O = details: 2.5 mM dopamine (nonsaturating), 50 mM Hepes, 37 °C
O=CCc1ccc(O)cc1 = details: 2.5 mM dopamine (nonsaturating), 50 mM Hepes, 37 °C
CC(C)=CCC[C@H](C)CC=O = details: 2.5 mM dopamine (nonsaturating), 50 mM Hepes, 37 °C
CCCCCC=O = details: 2.5 mM dopamine (nonsaturating), 50 mM Hepes, 37 °C
NCCc1ccc(O)c(O)c1 = details: 2.5 mM 4-HPAA (nonsaturating), 50 mM Hepes, 37 °C

Substance: TfNCS (Δ29TfNCS) (Thalictrum flavum subsp. glaucum)
- Km (CC(C)=CCC[C@@H](C)CC=O): 0.53 ± 0.14 mM
- Vmax (CC(C)=CCC[C@@H](C)CC=O): 1.07 µmol/min/mg
- kcat (CC(C)=CCC[C@@H](C)CC=O): 0.37 ± 0.03 s⁻¹
- kcat/Km (CC(C)=CCC[C@@H](C)CC=O): 710 ± 200 M⁻¹ s⁻¹
- Km (O=CCc1ccc(O)cc1): 18.1 ± 1.4 mM
- Vmax (O=CCc1ccc(O)cc1): 53.6 µmol/min/mg
- kcat (O=CCc1ccc(O)cc1): 18.7 ± 0.9 s⁻¹
- kcat/Km (O=CCc1ccc(O)cc1): 1030 ± 90 M⁻¹ s⁻¹
- Km (CC(C)=CCC[C@H](C)CC=O): 0.38 ± 0.10 mM
- Vmax (CC(C)=CCC[C@H](C)CC=O): 1.32 µmol/min/mg
- kcat (CC(C)=CCC[C@H](C)CC=O): 0.46 ± 0.02 s⁻¹
- kcat/Km (CC(C)=CCC[C@H](C)CC=O): 1200 ± 310 M⁻¹ s⁻¹
- Km (CCCCCC=O): 13.4 ± 1.8 mM
- Vmax (CCCCCC=O): 12.3 µmol/min/mg
- kcat (CCCCCC=O): 4.3 ± 0.3 s⁻¹
- kcat/Km (CCCCCC=O): 320 ± 50 M⁻¹ s⁻¹
- Km (NCCc1ccc(O)c(O)c1): 22.2 ± 1.5 mM
- Vmax (NCCc1ccc(O)c(O)c1): 69 µmol/min/mg
- kcat (NCCc1ccc(O)c(O)c1): 24 ± 1 s⁻¹
- kcat/Km (NCCc1ccc(O)c(O)c1): 1090 ± 80 M⁻¹ s⁻¹

Substance: TfNCS (Δ29TfNCS) (Thalictrum flavum subsp. glaucum; L76A)
- Km (CC(C)=CCC[C@@H](C)CC=O): 0.49 ± 0.11 mM
- Vmax (CC(C)=CCC[C@@H](C)CC=O): 1.58 µmol/min/mg
- kcat (CC(C)=CCC[C@@H](C)CC=O): 0.55 ± 0.03 s⁻¹
- kcat/Km (CC(C)=CCC[C@@H](C)CC=O): 1130 ± 270 M⁻¹ s⁻¹
- Km (O=CCc1ccc(O)cc1): 17.4 ± 1.0 mM
- Vmax (O=CCc1ccc(O)cc1): 40.9 µmol/min/mg
- kcat (O=CCc1ccc(O)cc1): 14.3 ± 0.5 s⁻¹
- kcat/Km (O=CCc1ccc(O)cc1): 820 ± 50 M⁻¹ s⁻¹
- Km (CC(C)=CCC[C@H](C)CC=O): 0.59 ± 0.09 mM
- Vmax (CC(C)=CCC[C@H](C)CC=O): 2.7 µmol/min/mg
- kcat (CC(C)=CCC[C@H](C)CC=O): 0.93 ± 0.05 s⁻¹
- kcat/Km (CC(C)=CCC[C@H](C)CC=O): 1570 ± 250 M⁻¹ s⁻¹
- Km (CCCCCC=O): 13.4 ± 0.8 mM
- Vmax (CCCCCC=O): 9 µmol/min/mg
- kcat (CCCCCC=O): 3.2 ± 0.1 s⁻¹
- kcat/Km (CCCCCC=O): 240 ± 20 M⁻¹ s⁻¹
- Km (NCCc1ccc(O)c(O)c1): 16.8 ± 1.0 mM
- Vmax (NCCc1ccc(O)c(O)c1): 38.9 µmol/min/mg
- kcat (NCCc1ccc(O)c(O)c1): 13.6 ± 0.5 s⁻¹
- kcat/Km (NCCc1ccc(O)c(O)c1): 810 ± 60 M⁻¹ s⁻¹

Substance: TfNCS (Δ29TfNCS) (Thalictrum flavum subsp. glaucum; Y108F)
- Km (CCCCCC=O): 7.6 ± 0.9 mM
- Vmax (CCCCCC=O): 7.14 µmol/min/mg
- kcat (CCCCCC=O): 2.5 ± 0.1 s⁻¹
- kcat/Km (CCCCCC=O): 330 ± 40 M⁻¹ s⁻¹
- Km (NCCc1ccc(O)c(O)c1): 13.3 ± 0.7 mM
- Vmax (NCCc1ccc(O)c(O)c1): 29.1 µmol/min/mg
- kcat (NCCc1ccc(O)c(O)c1): 10.2 ± 0.3 s⁻¹
- kcat/Km (NCCc1ccc(O)c(O)c1): 760 ± 50 M⁻¹ s⁻¹

— article PMC4413047, “‘Dopamine-first’ mechanism enables the rational engineering of the norcoclaurine synthase aldehyde activity profile” (The Febs Journal, 2015)
